System: VCIP
Assay: VCIP mRNA induction by growth factors and cytokines in monolayer cells
Type: cell-based, human
Settings: 6 h, northern blot
Method: FIGS. 1A-M show expression analysis and predicted amino acid sequence of VEGF and type I collagen inducible protein (VCIP). FIG. 1A: HUVECs were embedded into three-dimensional type I collagen gel in the presence of 20% adult human serum, 1× ITS and stimulated with VEGF^165 (100 ng/ml). Total RNA was prepared at the indicated time points. Northern blots were hybridized with a fragment of the VCIP (clone-33A) cDNA probe. The transcript size (3.4 kb) is indicated on the right. The numbers at the bottom of the gel represent the fold increase in VCIP mRNA levels, as compared with untreated cells. […] Total RNA was isolated at indicated time points and subjected to VCIP northern blot analysis. […] FIG. 1E: Poly(A)^+ RNA prepared from various human tissues was subjected to VCIP northern blot analysis by hybridization with the clone-33A cDNA probe. FIG. 1F: The blot shown in FIG. 1E was re-hybridized with a GAPDH probe, showing that equal amounts of RNA were loaded across the lanes. FIG. 1G: Detection of VCIP mRNA by RT-PCR (20 cycles): monolayer endothelial cells were treated for 30 min with: (1) untreated, (2) bFGF (20 ng/ml), (3) VEGF^165 (100 ng/ml), (4) PMA (20 ng/ml), (5) bFGF (20 ng/ml)+VEGF (100 ng/ml), (6) bFGF (20 ng/ml)+PMA (20 ng/ml), (7) VEGF (100 ng/ml)+PMA (20 ng/ml) and (8) bFGF (20 ng/ml)+VEGF (100 ng/ml)+PMA (20 ng/ml). […]

B1: EGF: growth factor (protein, UniProt P01133 23-1207, looked up)
Pro-epidermal growth factor: PQHWSCPEGTLAGNGNSTCVGPAPFLIFSHGNSIFRIDTEGTNYEQLVVDAGVSVIMDFHYNEKRIYWVDLERQLLQRVFLNGSRQERVCNIEKNVSGMAINWINEEVIWSNQQEGIITVTDMKGNNSHILLSALKYPANVAVDPVERFIFWSSEVAGSLYRADLDGVGVKALLETSEKITAVSLDVLDKRLFWIQYNREGSNSLICSCDYDGGSVHISKHPTQHNLFAMSLFGDRIFYSTWKMKTIWIANKHTGKDMVRINLHSSFVPLGELKVVHPLAQPKAEDDTWEPEQKLCKLRKGNCSSTVCGQDLQSHLCMCAEGYALSRDRKYCEDVNECAFWNHGCTLGCKNTPGSYYCTCPVGFVLLPDGKRCHQLVSCPRNVSECSHDCVLTSEGPLCFCPEGSVLERDGKTCSGCSSPDNGGCSQLCVPLSPVSWECDCFPGYDLQLDEKSCAASGPQPFLLFANSQDIRHMHFDGTDYGTLLSQQMGMVYALDHDPVENKIYFAHTALKWIERANMDGSQRERLIEEGVDVPEGLAVDWIGRRFYWTDRGKSLIGRSDLNGKRSKIITKENISQPRGIAVHPMAKRLFWTDTGINPRIESSSLQGLGRLVIASSDLIWPSGITIDFLTDKLYWCDAKQSVIEMANLDGSKRRRLTQNDVGHPFAVAVFEDYVWFSDWAMPSVMRVNKRTGKDRVRLQGSMLKPSSLVVVHPLAKPGADPCLYQNGGCEHICKKRLGTAWCSCREGFMKASDGKTCLALDGHQLLAGGEVDLKNQVTPLDILSKTRVSEDNITESQHMLVAEIMVSDQDDCAPVGCSMYARCISEGEDATCQCLKGFAGDGKLCSDIDECEMGVPVCPPASSKCINTEGGYVCRCSEGYQGDGIHCLDIDECQLGEHSCGENASCTNTEGGYTCMCAGRLSEPGLICPDSTPPPHLREDDHHYSVRNSDSECPLSHDGYCLHDGVCMYIEALDKYACNCVVGYIGERCQYRDLKWWELRHAGHGQQQKVIVVAVCVVVLVMLLLLSLWGAHYYRTQKLLSKNPKNPYEESSRDVRSRRPADTEDGMSSCPQPWFVVIKEHQDLKNGGQPVAGEDGQAADGSMQPTSWRQEPQLCGMGTEQGCWIPVSSDKGSCPQVMERSFHMPSYGTQTLEGGVEKPHSLLSANPLWQQRALDPPHQMELTQ
modifications: Pro-epidermal growth factor
- induction of VCIP expression (A431 epidermoid carcinoma cells): strongly induced
- induction of VCIP expression (HdMVECs): but not to EGF

— patent US20050002904A1, “Uses of vascular endothelial growth factor and type I collagen inducible protein (VCIP)” (priority 2003, published 2005)
